# Measurements as given in patent publication US20220119464A1.
# Biological target: biotinylated L-form of SARS-CoV-2 HR1 (SARS-CoV-2)
binder,measurement,value
SLDQINVTFLDLEYEMKKLEEAIKKLEESYIDLKEL (modifications not checked) [L-form of EK1],Kd,23 nM
